B1: C5A (XPA23) VH T58N (antibody, V domains shown)
VH: EVQLLESGGGLVQPGGSLRLSCAASGFTFSKYFMFWVRQAPGKGLEWVSVISPSGGMNRYADSVKGRFTISRDNSKNTLYLQMNSLRAEDTAVYYCARVGYGGNSDYWGQGTLVTVSS
VL: DIQMTQSPSSVSASVGDRLTIICRASQDINRWLAWYQQTPGNAPKLLIHSATSLQSGVPSRFSGSGSGTDFTLTINSLQPEDFATYYCQQADSFPLTFGGGTKVEIK
B2: C5A (XPA23) VH S105N (antibody, V domains shown)
VH: B1 VH with N58T, S105N
VL: B1 VL
B3: C5A (XPA23) VH S105T (antibody, V domains shown)
VH: B1 VH with N58T, S105T
VL: B1 VL
B4: C5A (XPA23) VH D106N (antibody, V domains shown)
VH: B1 VH with N58T, D106N
VL: B1 VL
B5: C5A (XPA23) VH Y101Q (antibody, V domains shown)
VH: B1 VH with N58T, Y101Q
VL: B1 VL
B6: C5A (XPA23) VH Y101E (antibody, V domains shown)
VH: B1 VH with N58T, Y101E
VL: B1 VL
B7: C5A (XPA23) VH G100T (antibody, V domains shown)
VH: B1 VH with N58T, G100T
VL: B1 VL
B8: C5A (XPA23) VH D106H (antibody, V domains shown)
VH: B1 VH with N58T, D106H
VL: B1 VL
B9: C5A (XPA23) VH G100Y (antibody, V domains shown)
VH: B1 VH with N58T, G100Y
VL: B1 VL
B10: C5A (XPA23) VH S105E (antibody, V domains shown)
VH: B1 VH with N58T, S105E
VL: B1 VL
B11: C5A (XPA23) VH S105H (antibody, V domains shown)
VH: B1 VH with N58T, S105H
VL: B1 VL
B12: C5A (XPA23) VH V99T (antibody, V domains shown)
VH: B1 VH with N58T, V99T
VL: B1 VL
B13: C5A (XPA23) VH Y101T (antibody, V domains shown)
VH: B1 VH with N58T, Y101T
VL: B1 VL
B14: C5A (XPA23) VH G100S (antibody, V domains shown)
VH: B1 VH with N58T, G100S
VL: B1 VL
B15: C5A (XPA23) VH Y101H (antibody, V domains shown)
VH: B1 VH with N58T, Y101H
VL: B1 VL
B16: C5A (XPA23) VH D106S (antibody, V domains shown)
VH: B1 VH with N58T, D106S
VL: B1 VL
B17: C5A (XPA23) VH R59S (antibody, V domains shown)
VH: B1 VH with N58T, R59S
VL: B1 VL
B18: C5A (XPA23) VH T58Y (antibody, V domains shown)
VH: B1 VH with N58Y
VL: B1 VL
B19: C5A (XPA23) VH R59K (antibody, V domains shown)
VH: B1 VH with N58T, R59K
VL: B1 VL
B20: C5A (XPA23) VH N104T (antibody, V domains shown)
VH: B1 VH with N58T, N104T
VL: B1 VL
B21: C5A (XPA23) VH D106E (antibody, V domains shown)
VH: B1 VH with N58T, D106E
VL: B1 VL
B22: C5A (XPA23) VH Y101R (antibody, V domains shown)
VH: B1 VH with N58T, Y101R
VL: B1 VL
B23: C5A (XPA23) VH N104Q (antibody, V domains shown)
VH: B1 VH with N58T, N104Q
VL: B1 VL
B24: C5A (XPA23) VH N104S (antibody, V domains shown)
VH: B1 VH with N58T, N104S
VL: B1 VL
B25: C5A (XPA23) VH D106K (antibody, V domains shown)
VH: B1 VH with N58T, D106K
VL: B1 VL
B26: C5A (XPA23) VH D106Q (antibody, V domains shown)
VH: B1 VH with N58T, D106Q
VL: B1 VL
B27: C5A (XPA23) VH R59Q (antibody, V domains shown)
VH: B1 VH with N58T, R59Q
VL: B1 VL
B28: C5A (XPA23) VH Y101N (antibody, V domains shown)
VH: B1 VH with N58T, Y101N
VL: B1 VL
B29: C5A (XPA23) VH R59N (antibody, V domains shown)
VH: B1 VH with N58T, R59N
VL: B1 VL
B30: C5A (XPA23) VH S105Q (antibody, V domains shown)
VH: B1 VH with N58T, S105Q
VL: B1 VL
B31: C5A (XPA23) VH G102N (antibody, V domains shown)
VH: B1 VH with N58T, G102N
VL: B1 VL
B32: C5A (XPA23) VH G100H (antibody, V domains shown)
VH: B1 VH with N58T, G100H
VL: B1 VL
B33: C5A (XPA23) VH R59T (antibody, V domains shown)
VH: B1 VH with N58T, R59T
VL: B1 VL
B34: C5A (XPA23) VH D106R (antibody, V domains shown)
VH: B1 VH with N58T, D106R
VL: B1 VL
B35: C5A (XPA23) VH N104H (antibody, V domains shown)
VH: B1 VH with N58T, N104H
VL: B1 VL

Where a chain is given by its changes, count along the chain named. Names and notes keep the numbering of the source.

The target in the first assay is binding partner of C5A (XPA23). Nature of the assay: Biacore. For orientation: Surface plasmon resonance follows binding to a sensor surface in real time, without labels.
As for B1, the fold affinity vs original stood at 0.9 fold.

Regarding B2, the fold affinity vs original amounted to 0.85 fold.

For B3, the fold difference in affinity vs original was 0.11 fold.

Turning to B4, the fold affinity vs original worked out at 0.07 fold.

B5: the fold affinity vs original was 0.06 fold.

Regarding B6, the fold affinity vs original stood at 0.03 fold.

As to B7, the fold difference in affinity vs original stood at 0.12 fold.

Regarding B8, the fold affinity vs original stood at 0.02 fold.

Take B9: the fold affinity vs original came to 0.09 fold.

As for B10, the fold affinity vs original stood at 1.17 fold.

B11: the fold affinity vs original worked out at 0.05 fold.

On to B12, for which the fold difference in affinity vs original was 0.1 fold.

Turning to B13, the fold difference in affinity vs original was found to be 0.06 fold.

Take B14: the fold affinity vs original stood at 2.8 fold.

As for B15, the fold affinity vs original turned out to be 0.04 fold.

Consider B16, for which the fold affinity vs original was found to be 0.03 fold.

With B17, the fold affinity vs original was determined as 0.13 fold.

As to B18, the fold affinity vs original turned out to be 1.01 fold.

For B19, the fold affinity vs original turned out to be 0.94 fold.

Take B20: the fold difference in affinity vs original is 0.95 fold.

For B21, the fold affinity vs original amounted to 0.04 fold.

On to B22, for which the fold affinity vs original was 0.85 fold.

Take B23: the fold affinity vs original was 0.03 fold.

In the case of B24, the fold affinity vs original is 1.02 fold.

For the molecule B25, the fold affinity vs original came out at 0.04 fold.

For B26, the fold affinity vs original was found to be 0.02 fold.

Take B27: the fold affinity vs original was determined as 0.86 fold.

On to B28, for which the fold affinity vs original was 0.06 fold.

In the case of B29, the fold affinity vs original turned out to be 0.86 fold.

In the case of B30, the fold affinity vs original amounted to 0.98 fold.

With B31, the fold affinity vs original was found to be 1.17 fold.

Turning to B32, the fold affinity vs original was determined as 0.06 fold.

For B33, the fold difference in affinity vs original was found to be 0.76 fold.

Take B34: the fold affinity vs original was 0.06 fold.

As to B35, the fold affinity vs original is 0.07 fold.

The target of another assay is binding partner of C5A (XPA23). Nature of the assay: Biacore, K-off.
B1: the fold difference in affinity vs original came to 0.9 fold.

For B2, the fold difference in affinity vs original is 0.85 fold.

On to B3, for which the fold difference in affinity vs original came to 0.11 fold.

For B4, the fold difference in affinity vs original stood at 0.07 fold.

With B5, the fold difference in affinity vs original was found to be 0.06 fold.

Regarding B6, the fold difference in affinity vs original was determined as 0.03 fold.

For the molecule B7, the fold difference in affinity vs original came out at 0.12 fold.

On to B8, for which the fold difference in affinity vs original is 0.02 fold.

B9: the fold difference in affinity vs original is 0.09 fold.

On to B10, for which the fold difference in affinity vs original came to 1.17 fold.

With B11, the fold difference in affinity vs original came to 0.05 fold.

On to B12, for which the fold difference in affinity vs original came out at 0.1 fold.

Regarding B13, the fold difference in affinity vs original came out at 0.06 fold.

In the case of B14, the fold difference in affinity vs original turned out to be 2.8 fold.

Regarding B15, the fold difference in affinity vs original was 0.04 fold.

In the case of B16, the fold difference in affinity vs original is 0.03 fold.

For B17, the fold difference in affinity vs original came to 0.13 fold.

Regarding B18, the fold difference in affinity vs original was found to be 1.01 fold.

For B19, the fold difference in affinity vs original stood at 0.94 fold.

Consider B20, for which the fold difference in affinity vs original is 0.95 fold.

As for B21, the fold difference in affinity vs original was determined as 0.04 fold.

On to B22, for which the fold difference in affinity vs original stood at 0.85 fold.

In the case of B23, the fold difference in affinity vs original is 0.03 fold.

Take B24: the fold difference in affinity vs original is 1.02 fold.

B25: the fold difference in affinity vs original was 0.04 fold.

B26: the fold difference in affinity vs original came out at 0.02 fold.

As for B27, the fold difference in affinity vs original was determined as 0.86 fold.

On to B28, for which the fold difference in affinity vs original is 0.06 fold.

As for B29, the fold difference in affinity vs original came to 0.86 fold.

For B30, the fold difference in affinity vs original was 0.98 fold.

Consider B31, for which the fold difference in affinity vs original was 1.17 fold.

For the molecule B32, the fold difference in affinity vs original was determined as 0.06 fold.

Take B33: the fold difference in affinity vs original came out at 0.76 fold.

For B34, the fold difference in affinity vs original was found to be 0.06 fold.

B35: the fold difference in affinity vs original was 0.07 fold.
